According to the supplement of paper PMC11316812:
± gives the standard deviation of the averaged measurements.

Assays:
MCF7 = experiment: percentage of EdU-negative (G0-arrested) nuclei per well, 72 h; higher = more G0 arrest; settings: reference: sequence is the full UniProt precursor, the tested protein was the secreted form or ectodomain
hTERT-HMEC = experiment: as above; settings: reference: sequence is the full UniProt precursor, the tested protein was the secreted form or ectodomain
[1] = protein concentration 0.02225 µM
[2] = protein concentration 0.2225 µM
[3] = protein concentration 0.03125 µM
[4] = protein concentration 0.3125 µM
[5] = protein concentration 0.0225 µM
[6] = protein concentration 0.02025 µM
[7] = protein concentration 0.2025 µM
[8] = protein concentration 0.00725 µM
[9] = protein concentration 0.0725 µM
[10] = protein concentration 0.015525 µM
[11] = protein concentration 0.15525 µM
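Further: secreted proteins added to cultured cells, EdU pulse at the end, nuclei found by Hoechst imaging, EdU status from nuclear versus surrounding ring intensity ratio, PBS as neutral control.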

MRNWLVLLCPCVLGAALHLWLRLRSPPPACASGAGPADQLALFPQWKSTHYDVVVGVLSARNNHELRNVIRSTWMRHLLQHPTLSQRVLVKFIIGAHGCEVPVEDREDPYSCKLLNITNPVLNQEIEAFSLSEDTSSGLPEDRVVSVSFRVLYPIVITSLGVFYDANDVGFQRNITVKLYQAEQEEALFIARFSPPSCGVQVNKLWYKPVEQFILPESFEGTIVWESQDLHGLVSRNLHKVTVNDGGGVLRVITAGEGALPHEFLEGVEGVAGGFIYTIQEGDALLHNLHSRPQRLIDHIRNLHEEDALLKEESSIYDDIVFVDVVDTYRNVPAKLLNFYRWTVETTSFNLLLKTDDDCYIDLEAVFNRIVQKNLDGPNFWWGNFRLNWAVDRTGKWQELEYPSPAYPAFACGSGYVISKDIVKWLASNSGRLKTYQGEDVSMGIWMAAIGPKRYQDSLWLCEKTCETGMLSSPQYSPWELTELWKLKERCGDPCRCQAR [Q8NCR0]
percentage of EdU-negative (MCF7; [1]): 25.7 ± 4.8%
percentage of EdU-negative (MCF7; [2]): 29.39 ± 0.067%
percentage of EdU-negative (hTERT-HMEC; [1]): 5.56 ± 0.58%
percentage of EdU-negative (hTERT-HMEC; [2]): 11 ± 1%

MRPGAPGPLWPLPWGALAWAVGFVSSMGSGNPAPGGVCWLQQGQEATCSLVLQTDVTRAECCASGNIDTAWSNLTHPGNKINLLGFLGLVHCLPCKDSCDGVECGPGKACRMLGGRPRCECAPDCSGLPARLQVCGSDGATYRDECELRAARCRGHPDLSVMYRGRCRKSCEHVVCPRPQSCVVDQTGSAHCVVCRAAPCPVPSSPGQELCGNNNVTYISSCHMRQATCFLGRSIGVRHAGSCAGTPEEPPGGESAEEEENFV
percentage of EdU-negative (MCF7; [3]): 26 ± 2.5%
percentage of EdU-negative (MCF7; [4]): 24.7 ± 3.3%
percentage of EdU-negative (hTERT-HMEC; [3]): 4.24 ± 0.09%
percentage of EdU-negative (hTERT-HMEC; [4]): 4.84 ± 0.11%

MRPLAGGLLKVVFVVFASLCAWYSGYLLAELIPDAPLSSAAYSIRSIGERPVLKAPVPKRQKCDHWTPCPSDTYAYRLLSGGGRSKYAKICFEDNLLMGEQLGNVARGINIAIVNYVTGNVTATRCFDMYEGDNSGPMTKFIQSAAPKSLLFMVTYDDGSTRLNNDAKNAIEALGSKEIRNMKFRSSWVFIAAKGLELPSEIQREKINHSDAKNNRYSGWPAEIQIEGCIPKERS
percentage of EdU-negative (MCF7; [5]): 27.2 ± 0.94%
percentage of EdU-negative (MCF7; protein concentration 0.225 µM): 24.7 ± 0.92%
percentage of EdU-negative (hTERT-HMEC; [5]): 4.35 ± 0.59%
percentage of EdU-negative (hTERT-HMEC; protein concentration 0.225 µM): 6.31 ± 1.2%

MRPLLCALTGLALLRAAGSLAAAEPFSPPRGDSAQSTACDRHMAVQRRLDVMEEMVEKTVDHLGTEVKGLLGLLEELAWNLPPGPFSPAPDLLGDGF [Q5JTB6]
percentage of EdU-negative (MCF7; [5]): 28.1 ± 2.1%
percentage of EdU-negative (MCF7; protein concentration 0.225 µM): 26 ± 1.2%
percentage of EdU-negative (hTERT-HMEC; [5]): 4.3 ± 0.46%
percentage of EdU-negative (hTERT-HMEC; protein concentration 0.225 µM): 5.25 ± 0.17%

MRPLLLLALLGWLLLAEAKGDAKPEDNLLVLTVATKETEGFRRFKRSAQFFNYKIQALGLGEDWNVEKGTSAGGGQKVRLLKKALEKHADKEDLVILFADSYDVLFASGPRELLKKFRQARSQVVFSAEELIYPDRRLETKYPVVSDGKRFLGSGGFIGYAPNLSKLVAEWEGQDSDSDQLFYTKIFLDPEKREQINITLDHRCRIFQNLDGALDEVVLKFEMGHVRARNLAYDTLPVLIHGNGPTKLQLNYLGNYIPRFWTFETGCTVCDEGLRSLKGIGDEALPTVLVGVFIEQPTPFVSLFFQRLLRLHYPQKHMRLFIHNHEQHHKAQVEEFLAQHGSEYQSVKLVGPEVRMANADARNMGADLCRQDRSCTYYFSVDADVALTEPNSLRLLIQQNKNVIAPLMTRHGRLWSNFWGALSADGYYARSEDYVDIVQGRRVGVWNVPYISNIYLIKGSALRGELQSSDLFHHSKLDPDMAFCANIRQQDVFMFLTNRHTLGHLLSLDSYRTTHLHNDLWEVFSNPEDWKEKYIHQNYTKALAGKLVETPCPDVYWFPIFTEVACDELVEEMEHFGQWSLGNNKDNRIQGGYENVPTIDIHMNQIGFEREWHKFLLEYIAPMTEKLYPGYYTRAQFDLAFVVRYKPDEQPSLMPHHDASTFTINIALNRVGVDYEGGGCRFLRYNCSIRAPRKGWTLMHPGRLTHYHEGLPTTRGTRYIAVSFVDP
percentage of EdU-negative (MCF7; [6]): 27 ± 1.9%
percentage of EdU-negative (MCF7; [7]): 27.54 ± 0.046%
percentage of EdU-negative (hTERT-HMEC; [6]): 4.5 ± 0.15%
percentage of EdU-negative (hTERT-HMEC; [7]): 7.829 ± 0.054%

MRPLLVLLLLGLAAGSPPLDDNKIPSLCPGHPGLPGTPGHHGSQGLPGRDGRDGRDGAPGAPGEKGEGGRPGLPGPRGDPGPRGEAGPAGPTGPAGECSVPPRSAFSAKRSESRVPPPSDAPLPFDRVLVNEQGHYDAVTGKFTCQVPGVYYFAVHATVYRASLQFDLVKNGESIASFFQFFGGWPKPASLSGGAMVRLEPEDQVWVQVGVGDYIGIYASIKTDSTFSGFLVYSDWHSSPVFA [Q9BXJ0]
percentage of EdU-negative (MCF7; [5]): 23.7 ± 0.35%
percentage of EdU-negative (MCF7; protein concentration 0.225 µM): 24.3 ± 0.42%
percentage of EdU-negative (hTERT-HMEC; [5]): 5.51 ± 0.91%
percentage of EdU-negative (hTERT-HMEC; protein concentration 0.225 µM): 6.26 ± 0.1%

MRPPACWWLLAPPALLALLTCSLAFGLASEDTKKEVKQSQDLEKSGISRKNDIDLKGIVFVIQSQSNSFHAKRAEQLKKSILKQAADLTQELPSVLLLHQLAKQEGAWTILPLLPHFSVTYSRNSSWIFFCEEETRIQIPKLLETLRRYDPSKEWFLGKALHDEEATIIHHYAFSENPTVFKYPDFAAGWALSIPLVNKLTKRLKSESLKSDFTIDLKHEIALYIWDKGGGPPLTPVPEFCTNDVDFYCATTFHSFLPLCRKPVKKKDIFVAVKTCKKFHGDRIPIVKQTWESQASLIEYYSDYTENSIPTVDLGIPNTDRGHCGKTFAILERFLNRSQDKTAWLVIVDDDTLISISRLQHLLSCYDSGEPVFLGERYGYGLGTGGYSYITGGGGMVFSREAVRRLLASKCRCYSNDAPDDMVLGMCFSGLGIPVTHSPLFHQARPVDYPKDYLSHQVPISFHKHWNIDPVKVYFTWLAPSDEDKARQETQKGFREEL [Q6Y288]
percentage of EdU-negative (MCF7; [5]): 23.9 ± 0.6%
percentage of EdU-negative (MCF7; protein concentration 0.225 µM): 28.2 ± 2.5%
percentage of EdU-negative (hTERT-HMEC; [5]): 4.96 ± 0.058%
percentage of EdU-negative (hTERT-HMEC; protein concentration 0.225 µM): 9.95 ± 0.45%

MRPPGFRNFLLLASSLLFAGLSAVPQSFSPSLRSWPGAACRLSRAESERRCRAPGQPPGAALCHGRGRCDCGVCICHVTEPGMFFGPLCECHEWVCETYDGSTCAGHGKCDCGKCKCDQGWYGDACQYPTNCDLTKKKSNQMCKNSQDIICSNAGTCHCGRCKCDNSDGSGLVYGKFCECDDRECIDDETEEICGGHGKCYCGNCYCKAGWHGDKCEFQCDITPWESKRRCTSPDGKICSNRGTCVCGECTCHDVDPTGDWGDIHGDTCECDERDCRAVYDRYSDDFCSGHGQCNCGRCDCKAGWYGKKCEHPQSCTLSAEESIRKCQGSSDLPCSGRGKCECGKCTCYPPGDRRVYGKTCECDDRRCEDLDGVVCGGHGTCSCGRCVCERGWFGKLCQHPRKCNMTEEQSKNLCESADGILCSGKGSCHCGKCICSAEEWYISGEFCDCDDRDCDKHDGLICTGNGICSCGNCECWDGWNGNACEIWLGSEYP
percentage of EdU-negative (MCF7; [8]): 26.1 ± 1.1%
percentage of EdU-negative (MCF7; [9]): 24.7 ± 1.8%
percentage of EdU-negative (hTERT-HMEC; [8]): 4.34 ± 0.65%
percentage of EdU-negative (hTERT-HMEC; [9]): 6.33 ± 0.52%

MRPPQCLLHTPSLASPLLLLLLWLLGGGVGAEGREDAELLVTVRGGRLRGIRLKTPGGPVSAFLGIPFAEPPMGPRRFLPPEPKQPWSGVVDATTFQSVCYQYVDTLYPGFEGTEMWNPNRELSEDCLYLNVWTPYPRPTSPTPVLVWIYGGGFYSGASSLDVYDGRFLVQAERTVLVSMNYRVGAFGFLALPGSREAPGNVGLLDQRLALQWVQENVAAFGGDPTSVTLFGESAGAASVGMHLLSPPSRGLFHRAVLQSGAPNGPWATVGMGEARRRATQLAHLVGCPPGGTGGNDTELVACLRTRPAQVLVNHEWHVLPQESVFRFSFVPVVDGDFLSDTPEALINAGDFHGLQVLVGVVKDEGSYFLVYGAPGFSKDNESLISRAEFLAGVRVGVPQVSDLAAEAVVLHYTDWLHPEDPARLREALSDVVGDHNVVCPVAQLAGRLAAQGARVYAYVFEHRASTLSWPLWMGVPHGYEIEFIFGIPLDPSRNYTAEEKIFAQRLMRYWANFARTGDPNEPRDPKAPQWPPYTAGAQQYVSLDLRPLEVRRGLRAQACAFWNRFLPKLLSATDTLDEAERQWKAEFHRWSSYMVHWKNQFDHYSKQDRCSDL
percentage of EdU-negative (MCF7; [8]): 25.5 ± 3.2%
percentage of EdU-negative (MCF7; [9]): 27.8 ± 2.5%
percentage of EdU-negative (hTERT-HMEC; [8]): 4.96 ± 0.24%
percentage of EdU-negative (hTERT-HMEC; [9]): 8.871 ± 0.06%

MRPQELPRLAFPLLLLLLLLLPPPPCPAHSATRFDPTWESLDARQLPAWFDQAKFGIFIHWGVFSVPSFGSEWFWWYWQKEKIPKYVEFMKDNYPPSFKYEDFGPLFTAKFFNANQWADIFQASGAKYIVLTSKHHEGFTLWGSEYSWNWNAIDEGPKRDIVKELEVAIRNRTDLRFGLYYSLFEWFHPLFLEDESSSFHKRQFPVSKTLPELYELVNNYQPEVLWSDGDGGAPDQYWNSTGFLAWLYNESPVRGTVVTNDRWGAGSICKHGGFYTCSDRYNPGHLLPHKWENCMTIDKLSWGYRREAGISDYLTIEELVKQLVETVSCGGNLLMNIGPTLDGTISVVFEERLRQMGSWLKVNGEAIYETHTWRSQNDTVTPDVWYTSKPKEKLVYAIFLKWPTSGQLFLGHPKAILGATEVKLLGHGQPLNWISLEQNGIMVELPQLTIHQMPCKWGWALALTNVI [Q9BTY2]
percentage of EdU-negative (MCF7; [10]): 22.7 ± 0.71%
percentage of EdU-negative (MCF7; [11]): 27.2 ± 2.1%
percentage of EdU-negative (hTERT-HMEC; [10]): 4.67 ± 0.2%
percentage of EdU-negative (hTERT-HMEC; [11]): 5.55 ± 0.98%

MRPQGPAASPQRLRGLLLLLLLQLPAPSSASEIPKGKQKAQLRQREVVDLYNGMCLQGPAGVPGRDGSPGANGIPGTPGIPGRDGFKGEKGECLRESFEESWTPNYKQCSWSSLNYGIDLGKIAECTFTKMRSNSALRVLFSGSLRLKCRNACCQRWYFTFNGAECSGPLPIEAIIYLDQGSPEMNSTINIHRTSSVEGLCEGIGAGLVDVAIWVGTCSDYPKGDASTGWNSVSRIIIEELPK [Q96CG8]
percentage of EdU-negative (MCF7; [5]): 25.9 ± 1.8%
percentage of EdU-negative (MCF7; protein concentration 0.225 µM): 22.2 ± 3.5%
percentage of EdU-negative (hTERT-HMEC; [5]): 5.305 ± 0.023%
percentage of EdU-negative (hTERT-HMEC; protein concentration 0.225 µM): 4.81 ± 1.6%
